From US20240293499A1

Assays:
[1] = target: hVISTA-COMP-his, pentameric form comprising the extracellular IgV domain of human VISTA (human) (UniProt Q9H7M9); experiment: SPR (BIAcore T200), single-cycle kinetics, hVISTA-COMP-his captured on anti-His chip, mAb injected at 20, 40, 80, 160, 320 nM, 1:1 fit
[2] = target: T1, murine VISTA on mouse splenocytes (macrophages, neutrophils, CD4+ T cells) (mouse) (UniProt Q9D659); experiment: cell-based or functional assay
T1 sequence (looked up): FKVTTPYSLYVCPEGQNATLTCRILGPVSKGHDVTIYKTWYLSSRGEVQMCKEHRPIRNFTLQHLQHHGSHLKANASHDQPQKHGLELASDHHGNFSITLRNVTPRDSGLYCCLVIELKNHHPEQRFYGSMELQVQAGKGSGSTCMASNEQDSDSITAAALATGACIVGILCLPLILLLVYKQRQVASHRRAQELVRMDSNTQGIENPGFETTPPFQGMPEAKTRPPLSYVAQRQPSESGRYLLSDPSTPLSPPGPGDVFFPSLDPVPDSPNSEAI

[3] = target: T2, mVISTA-COMP-his, pentameric form comprising the extracellular IgV domain of murine VISTA (mouse) (UniProt Q9D659); experiment: SPR (BIAcore T200), single-cycle kinetics, mVISTA-COMP-his captured on anti-His chip, mAb injected at 20, 40, 80, 160, 320 nM, 1:1 fit
T2 sequence (Q9D659 whole entry, looked up): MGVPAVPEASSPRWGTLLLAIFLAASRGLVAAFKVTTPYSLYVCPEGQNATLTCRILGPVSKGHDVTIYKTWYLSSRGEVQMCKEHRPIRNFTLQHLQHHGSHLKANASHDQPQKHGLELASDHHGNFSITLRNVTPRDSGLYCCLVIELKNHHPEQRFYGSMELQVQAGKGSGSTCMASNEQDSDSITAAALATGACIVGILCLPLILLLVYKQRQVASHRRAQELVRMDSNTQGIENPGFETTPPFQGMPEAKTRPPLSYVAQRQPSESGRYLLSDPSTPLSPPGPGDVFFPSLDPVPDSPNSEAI

[4] = target: hVISTA-COMP-his, pentameric form comprising the extracellular IgV domain of human VISTA (human) (UniProt Q9H7M9); experiment: SPR (BIAcore T200), single-cycle kinetics; hVISTA-COMP-his captured on anti-His chip, mAb as analyte; 1:1 Langmuir fit
[5] = target: T2, mVISTA-COMP-his, pentameric form comprising the extracellular IgV domain of murine VISTA (mouse); experiment: SPR (BIAcore T200), single-cycle kinetics; mVISTA-COMP-his captured on anti-His chip, mAb as analyte; 1:1 Langmuir fit

Sequence of hVISTA-COMP-his, pentameric form comprising the extracellular IgV domain of human VISTA (human) (Q9H7M9 33-194): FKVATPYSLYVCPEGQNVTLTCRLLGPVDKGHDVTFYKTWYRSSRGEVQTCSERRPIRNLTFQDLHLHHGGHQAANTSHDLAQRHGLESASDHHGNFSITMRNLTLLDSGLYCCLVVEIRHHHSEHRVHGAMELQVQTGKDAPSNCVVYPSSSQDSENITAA

Kd [1]: 838 nM
koff [1]: 0.000331 s⁻¹
kon [1]: 395 M⁻¹ s⁻¹
reduction of proliferation of ConA-stimulated CD4+ T cells, mouse splenocytes [2]: 4%
Kd [3]: 3 nM
koff [3]: 0.000177 s⁻¹
kon [3]: 59000 M⁻¹ s⁻¹
Kd [4]: 840 nM
Kd [5]: 3 nM
B1: rat anti-hmVISTA mAb 7C6 (antibody, part only; not given: light chain, rat IgG2a, V domains shown, part only)
VH: QVQLQQSGAELAKPGSSVKISCKASGYTFTSYYISWIKQTTGQGLEYIGYINTGSGGTNYNEKFKGKATLTVDKSSSTAFMQLSSLTPDDSAVYYCAREGTFYSGDVGYWYFDFWGPGSMVTVSS
